Measurements reported in PMC10279719 (Nature Communications, 2023).

Key:
Test in all cases: SPR; biotinylated PEAK proteins (with or without Src phosphorylation) captured with a biotin CAPture kit, CrkII NSH3 as analyte; Biacore 8K+, 20 °C, HBS-TP (150 mM NaCl); 1 M NaCl regeneration; steady state
Details in all cases: both partners purified
[1] = target: T1, full length PEAK3 (PEAK3^FL, residues 1-473), from E. coli (human, UniProt Q6ZS72 1-473, biotin (EZ-Link NHS-PEG4-Biotin, 1:1 molar ratio))
T1 construct: also called PEAK3-FL E.coli; source: E. coli C41 (DE3), purified (two-step purification)
T1 sequence (looked up): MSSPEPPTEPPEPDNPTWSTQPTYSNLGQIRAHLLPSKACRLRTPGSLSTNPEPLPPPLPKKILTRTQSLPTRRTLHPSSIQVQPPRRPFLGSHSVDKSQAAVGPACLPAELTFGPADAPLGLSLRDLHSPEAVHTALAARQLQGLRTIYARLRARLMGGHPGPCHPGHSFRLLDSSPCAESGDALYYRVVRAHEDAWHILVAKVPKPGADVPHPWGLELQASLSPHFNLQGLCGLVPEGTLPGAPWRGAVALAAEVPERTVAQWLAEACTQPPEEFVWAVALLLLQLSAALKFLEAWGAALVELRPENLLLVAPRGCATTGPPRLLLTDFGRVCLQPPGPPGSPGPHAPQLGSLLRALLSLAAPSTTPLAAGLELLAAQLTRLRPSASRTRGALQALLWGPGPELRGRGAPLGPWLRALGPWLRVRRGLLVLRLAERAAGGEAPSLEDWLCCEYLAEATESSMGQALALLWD

[2] = target: T2, PEAK2^IDR1 (residues 802-1406), from insect cells, phosphorylated by Src (human, UniProt Q86YV5 802-1406, phosphorylated with Src kinase, sites not stated; phosphorylation of the tandem site 14-3-3 motif (RAASSP) found by proteomic analysis; biotin (EZ-Link NHS-PEG4-Biotin, 1:1 molar ratio))
T2 construct: human PEAK2 (SgK223, PRAG1), UniProt Q86YV5, residues 802-1406; also called PEAK2-IDR1 (+ Src phosphorylation); source: Sf21 insect cells, purified; phosphorylated in vitro with recombinant Src kinase domain
T2 sequence (looked up): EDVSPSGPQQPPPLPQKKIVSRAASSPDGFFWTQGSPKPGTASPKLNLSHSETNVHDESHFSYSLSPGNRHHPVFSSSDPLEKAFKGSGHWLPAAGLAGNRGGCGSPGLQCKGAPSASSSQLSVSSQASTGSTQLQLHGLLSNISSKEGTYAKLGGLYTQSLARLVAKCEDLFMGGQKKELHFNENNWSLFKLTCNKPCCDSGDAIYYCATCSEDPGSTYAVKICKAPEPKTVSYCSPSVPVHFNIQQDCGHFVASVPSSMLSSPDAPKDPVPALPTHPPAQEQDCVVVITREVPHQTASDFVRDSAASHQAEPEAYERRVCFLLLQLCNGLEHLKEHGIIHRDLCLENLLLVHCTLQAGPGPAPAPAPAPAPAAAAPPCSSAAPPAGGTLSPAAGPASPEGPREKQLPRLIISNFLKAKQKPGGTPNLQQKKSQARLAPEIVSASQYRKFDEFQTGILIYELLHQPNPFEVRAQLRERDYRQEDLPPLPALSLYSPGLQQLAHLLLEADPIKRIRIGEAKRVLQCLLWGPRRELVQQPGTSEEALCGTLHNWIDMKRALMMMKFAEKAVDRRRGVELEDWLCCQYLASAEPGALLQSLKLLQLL

[3] = target: T3, full length PEAK3 (PEAK3^FL, residues 1-473), from insect cells, phosphorylated by Src (human, UniProt Q6ZS72 1-473, phosphoserine at S69; phosphotyrosine at Y24 (by Src in vitro, shown by MS/MS); other Src sites not stated; biotin (EZ-Link NHS-PEG4-Biotin, 1:1 molar ratio))
T3 construct: As Sm27, with Src phosphorylation before immobilisation; also called PEAK3-FL (+ Src phosphorylation); source: Sf21 insect cells, purified as a complex with insect 14-3-3ε,ζ; phosphorylated in vitro with recombinant Src kinase domain
T3 sequence (looked up): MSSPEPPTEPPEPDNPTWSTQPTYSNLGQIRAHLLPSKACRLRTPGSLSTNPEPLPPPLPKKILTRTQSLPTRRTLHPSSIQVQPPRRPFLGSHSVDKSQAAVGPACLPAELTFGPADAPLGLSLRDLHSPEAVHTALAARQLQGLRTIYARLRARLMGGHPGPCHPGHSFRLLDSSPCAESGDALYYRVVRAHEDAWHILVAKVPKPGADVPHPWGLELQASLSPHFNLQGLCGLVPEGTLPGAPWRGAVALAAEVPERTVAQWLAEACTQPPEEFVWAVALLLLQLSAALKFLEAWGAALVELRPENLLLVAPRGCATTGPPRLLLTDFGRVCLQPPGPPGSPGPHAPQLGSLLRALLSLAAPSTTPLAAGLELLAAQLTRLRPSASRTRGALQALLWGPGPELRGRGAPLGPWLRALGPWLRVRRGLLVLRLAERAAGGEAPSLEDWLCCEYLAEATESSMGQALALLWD

[4] = target: T4, PEAK2^IDR1 (residues 802-1406), from insect cells (human, UniProt Q86YV5 802-1406, phosphorylation of the tandem site 14-3-3 motif (RAASSP) found by proteomic analysis; biotin (EZ-Link NHS-PEG4-Biotin, 1:1 molar ratio))
T4 construct: human PEAK2 (SgK223, PRAG1), UniProt Q86YV5, residues 802-1406; Purifies as a homodimer
T4 sequence (looked up): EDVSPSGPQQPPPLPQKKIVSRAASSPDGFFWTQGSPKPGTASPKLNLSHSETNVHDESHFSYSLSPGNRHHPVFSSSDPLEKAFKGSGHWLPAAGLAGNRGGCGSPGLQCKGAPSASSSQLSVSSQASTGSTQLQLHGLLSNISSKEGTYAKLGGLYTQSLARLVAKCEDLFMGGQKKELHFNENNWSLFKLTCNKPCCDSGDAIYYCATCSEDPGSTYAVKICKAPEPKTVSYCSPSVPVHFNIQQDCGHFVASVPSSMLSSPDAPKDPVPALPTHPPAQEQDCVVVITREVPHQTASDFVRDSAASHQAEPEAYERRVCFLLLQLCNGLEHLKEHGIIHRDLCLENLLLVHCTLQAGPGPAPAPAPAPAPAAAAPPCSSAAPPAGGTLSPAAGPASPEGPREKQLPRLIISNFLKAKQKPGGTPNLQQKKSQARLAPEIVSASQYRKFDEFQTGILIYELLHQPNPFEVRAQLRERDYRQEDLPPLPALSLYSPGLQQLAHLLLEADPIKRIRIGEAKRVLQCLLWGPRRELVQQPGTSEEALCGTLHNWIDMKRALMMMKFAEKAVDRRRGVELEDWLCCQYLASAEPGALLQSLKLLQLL

[5] = target: T5, full length PEAK3 (PEAK3^FL, residues 1-473), from insect cells (human, UniProt Q6ZS72 1-473, phosphoserine at S69; biotin (EZ-Link NHS-PEG4-Biotin, 1:1 molar ratio))
T5 construct: Immobilised as the complex with insect cell 14-3-3ε,ζ
T5 sequence (looked up): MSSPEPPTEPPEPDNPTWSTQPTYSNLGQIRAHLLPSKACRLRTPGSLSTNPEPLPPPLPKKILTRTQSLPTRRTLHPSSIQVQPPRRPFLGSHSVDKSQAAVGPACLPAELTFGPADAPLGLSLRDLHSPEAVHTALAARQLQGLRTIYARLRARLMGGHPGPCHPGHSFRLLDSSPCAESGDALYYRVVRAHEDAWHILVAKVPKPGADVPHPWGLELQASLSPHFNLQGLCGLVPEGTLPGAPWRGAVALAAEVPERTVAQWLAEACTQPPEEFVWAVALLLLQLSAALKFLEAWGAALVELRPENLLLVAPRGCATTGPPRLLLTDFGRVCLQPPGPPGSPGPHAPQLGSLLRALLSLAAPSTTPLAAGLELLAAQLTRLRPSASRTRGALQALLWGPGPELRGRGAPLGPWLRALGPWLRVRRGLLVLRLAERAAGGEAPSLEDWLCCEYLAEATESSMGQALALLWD

Kd [1]: 9.6 µM
Kd [2]: 5.2 µM
Kd [3]: 6.84 µM
Kd [4]: 4.79 µM
Kd [5]: 3.87 µM
B1: CrkII N-terminal SH3 domain (CrkII^NSH3, residues 134-191) (domain or fragment, human, UniProt P46108-1 134-191, looked up)
chain: AEYVRALFDFNGNDEEDLPFKKGDILRIRDKPEEQWWNAEDSEGKRGMIPVPYVEKYR
notes: human CrkII NSH3 domain, UniProt P46108-1, residues 134-191; Amine coupled to a CM5 chip in a2; analyte in a4; in the syringe in ITC
